Biological target: T1, EGFR-Fc fusion protein (recombinant EGFR extracellular region-Fc) (human, UniProt P00533 25-645)
T1 construct: extracellular domain; not shown: Fc part supplied by vector pABG1
Assay: BLI ForteBio QKe, biotinylated EGFR-Fc on streptavidin sensor, antibody 20 nM; fold reduction of affinity, parent Ame55 = 1;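 further: parent antibody affinity set as 1, with values giving the fold drop in affinity of each mutant antibody relative to that parent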

Binder	Affinity change [fold]
Ame55 mutant, heavy chain 51A (antibody, V domains shown, Mutant of Ame55) VH: EVQLVQSGAEVKKPGESLKISCKGSGYSFTSYWIGWVRQMPGKGLEWMGIAYPGDSDTRYSPSFQGQVTISADKSISTAYLQWSSLKASDTAMYYCARGIIYPSNVAVWGQGTLVTVSS VL: SYELTQPPSVSVAPGQTARITCSGDALGDKYASWYQQKPGQAPVLVIYEDSKRPSGIPERFSGSNSGNTATLTISGTQAEDEADYYCSVWDGDWGMPVFGGGTKLTVLG	> 10
Ame55 mutant, heavy chain 104A (antibody, V domains shown, Mutant of Ame55) VH: EVQLVQSGAEVKKPGESLKISCKGSGYSFTSYWIGWVRQMPGKGLEWMGIIYPGDSDTRYSPSFQGQVTISADKSISTAYLQWSSLKASDTAMYYCARGIIYPANVAVWGQGTLVTVSS VL: SYELTQPPSVSVAPGQTARITCSGDALGDKYASWYQQKPGQAPVLVIYEDSKRPSGIPERFSGSNSGNTATLTISGTQAEDEADYYCSVWDGDWGMPVFGGGTKLTVLG	3
Ame55 mutant, heavy chain 55A (antibody, V domains shown, Mutant of Ame55) VH: EVQLVQSGAEVKKPGESLKISCKGSGYSFTSYWIGWVRQMPGKGLEWMGIIYPGASDTRYSPSFQGQVTISADKSISTAYLQWSSLKASDTAMYYCARGIIYPSNVAVWGQGTLVTVSS VL: SYELTQPPSVSVAPGQTARITCSGDALGDKYASWYQQKPGQAPVLVIYEDSKRPSGIPERFSGSNSGNTATLTISGTQAEDEADYYCSVWDGDWGMPVFGGGTKLTVLG	> 100
Ame55 mutant, heavy chain 53A (antibody, V domains shown, Mutant of Ame55) VH: EVQLVQSGAEVKKPGESLKISCKGSGYSFTSYWIGWVRQMPGKGLEWMGIIYAGDSDTRYSPSFQGQVTISADKSISTAYLQWSSLKASDTAMYYCARGIIYPSNVAVWGQGTLVTVSS VL: SYELTQPPSVSVAPGQTARITCSGDALGDKYASWYQQKPGQAPVLVIYEDSKRPSGIPERFSGSNSGNTATLTISGTQAEDEADYYCSVWDGDWGMPVFGGGTKLTVLG	5
Ame55 mutant, heavy chain 107G (antibody, V domains shown, Mutant of Ame55) VH: EVQLVQSGAEVKKPGESLKISCKGSGYSFTSYWIGWVRQMPGKGLEWMGIIYPGDSDTRYSPSFQGQVTISADKSISTAYLQWSSLKASDTAMYYCARGIIYPSNVGVWGQGTLVTVSS VL: SYELTQPPSVSVAPGQTARITCSGDALGDKYASWYQQKPGQAPVLVIYEDSKRPSGIPERFSGSNSGNTATLTISGTQAEDEADYYCSVWDGDWGMPVFGGGTKLTVLG	1.5
Ame55 mutant, heavy chain 59N (antibody, V domains shown, Mutant of Ame55) VH: EVQLVQSGAEVKKPGESLKISCKGSGYSFTSYWIGWVRQMPGKGLEWMGIIYPGDSDTNYSPSFQGQVTISADKSISTAYLQWSSLKASDTAMYYCARGIIYPSNVAVWGQGTLVTVSS VL: SYELTQPPSVSVAPGQTARITCSGDALGDKYASWYQQKPGQAPVLVIYEDSKRPSGIPERFSGSNSGNTATLTISGTQAEDEADYYCSVWDGDWGMPVFGGGTKLTVLG	> 10
Ame55 mutant, heavy chain 107S (antibody, V domains shown, Mutant of Ame55) VH: EVQLVQSGAEVKKPGESLKISCKGSGYSFTSYWIGWVRQMPGKGLEWMGIIYPGDSDTRYSPSFQGQVTISADKSISTAYLQWSSLKASDTAMYYCARGIIYPSNVSVWGQGTLVTVSS VL: SYELTQPPSVSVAPGQTARITCSGDALGDKYASWYQQKPGQAPVLVIYEDSKRPSGIPERFSGSNSGNTATLTISGTQAEDEADYYCSVWDGDWGMPVFGGGTKLTVLG	0.2
Ame55 mutant, heavy chain 108A (antibody, V domains shown, Mutant of Ame55) VH: EVQLVQSGAEVKKPGESLKISCKGSGYSFTSYWIGWVRQMPGKGLEWMGIIYPGDSDTRYSPSFQGQVTISADKSISTAYLQWSSLKASDTAMYYCARGIIYPSNVAAWGQGTLVTVSS VL: SYELTQPPSVSVAPGQTARITCSGDALGDKYASWYQQKPGQAPVLVIYEDSKRPSGIPERFSGSNSGNTATLTISGTQAEDEADYYCSVWDGDWGMPVFGGGTKLTVLG	5
Ame55 mutant, heavy chain 52D (antibody, V domains shown, Mutant of Ame55) VH: EVQLVQSGAEVKKPGESLKISCKGSGYSFTSYWIGWVRQMPGKGLEWMGIIDPGDSDTRYSPSFQGQVTISADKSISTAYLQWSSLKASDTAMYYCARGIIYPSNVAVWGQGTLVTVSS VL: SYELTQPPSVSVAPGQTARITCSGDALGDKYASWYQQKPGQAPVLVIYEDSKRPSGIPERFSGSNSGNTATLTISGTQAEDEADYYCSVWDGDWGMPVFGGGTKLTVLG	> 10
Ame55 mutant, heavy chain 105A (antibody, V domains shown, Mutant of Ame55) VH: EVQLVQSGAEVKKPGESLKISCKGSGYSFTSYWIGWVRQMPGKGLEWMGIIYPGDSDTRYSPSFQGQVTISADKSISTAYLQWSSLKASDTAMYYCARGIIYPSAVAVWGQGTLVTVSS VL: SYELTQPPSVSVAPGQTARITCSGDALGDKYASWYQQKPGQAPVLVIYEDSKRPSGIPERFSGSNSGNTATLTISGTQAEDEADYYCSVWDGDWGMPVFGGGTKLTVLG	> 10
Ame55 mutant, heavy chain 56A (antibody, V domains shown, Mutant of Ame55) VH: EVQLVQSGAEVKKPGESLKISCKGSGYSFTSYWIGWVRQMPGKGLEWMGIIYPGDADTRYSPSFQGQVTISADKSISTAYLQWSSLKASDTAMYYCARGIIYPSNVAVWGQGTLVTVSS VL: SYELTQPPSVSVAPGQTARITCSGDALGDKYASWYQQKPGQAPVLVIYEDSKRPSGIPERFSGSNSGNTATLTISGTQAEDEADYYCSVWDGDWGMPVFGGGTKLTVLG	1
Ame55 mutant, heavy chain 60A (antibody, V domains shown, Mutant of Ame55) VH: EVQLVQSGAEVKKPGESLKISCKGSGYSFTSYWIGWVRQMPGKGLEWMGIIYPGDSDTRASPSFQGQVTISADKSISTAYLQWSSLKASDTAMYYCARGIIYPSNVAVWGQGTLVTVSS VL: SYELTQPPSVSVAPGQTARITCSGDALGDKYASWYQQKPGQAPVLVIYEDSKRPSGIPERFSGSNSGNTATLTISGTQAEDEADYYCSVWDGDWGMPVFGGGTKLTVLG	5
Ame55 mutant, heavy chain 58A (antibody, V domains shown, Mutant of Ame55) VH: EVQLVQSGAEVKKPGESLKISCKGSGYSFTSYWIGWVRQMPGKGLEWMGIIYPGDSDARYSPSFQGQVTISADKSISTAYLQWSSLKASDTAMYYCARGIIYPSNVAVWGQGTLVTVSS VL: SYELTQPPSVSVAPGQTARITCSGDALGDKYASWYQQKPGQAPVLVIYEDSKRPSGIPERFSGSNSGNTATLTISGTQAEDEADYYCSVWDGDWGMPVFGGGTKLTVLG	> 10
Ame55 mutant, heavy chain 106A (antibody, V domains shown, Mutant of Ame55) VH: EVQLVQSGAEVKKPGESLKISCKGSGYSFTSYWIGWVRQMPGKGLEWMGIIYPGDSDTRYSPSFQGQVTISADKSISTAYLQWSSLKASDTAMYYCARGIIYPSNAAVWGQGTLVTVSS VL: SYELTQPPSVSVAPGQTARITCSGDALGDKYASWYQQKPGQAPVLVIYEDSKRPSGIPERFSGSNSGNTATLTISGTQAEDEADYYCSVWDGDWGMPVFGGGTKLTVLG	> 10
Ame55 mutant, heavy chain 100A (antibody, V domains shown, Mutant of Ame55) VH: EVQLVQSGAEVKKPGESLKISCKGSGYSFTSYWIGWVRQMPGKGLEWMGIIYPGDSDTRYSPSFQGQVTISADKSISTAYLQWSSLKASDTAMYYCARGAIYPSNVAVWGQGTLVTVSS VL: SYELTQPPSVSVAPGQTARITCSGDALGDKYASWYQQKPGQAPVLVIYEDSKRPSGIPERFSGSNSGNTATLTISGTQAEDEADYYCSVWDGDWGMPVFGGGTKLTVLG	5
Ame55 mutant, heavy chain 99A (antibody, V domains shown, Mutant of Ame55) VH: EVQLVQSGAEVKKPGESLKISCKGSGYSFTSYWIGWVRQMPGKGLEWMGIIYPGDSDTRYSPSFQGQVTISADKSISTAYLQWSSLKASDTAMYYCARAIIYPSNVAVWGQGTLVTVSS VL: SYELTQPPSVSVAPGQTARITCSGDALGDKYASWYQQKPGQAPVLVIYEDSKRPSGIPERFSGSNSGNTATLTISGTQAEDEADYYCSVWDGDWGMPVFGGGTKLTVLG	> 10
Ame55 mutant, heavy chain 54S (antibody, V domains shown, Mutant of Ame55) VH: EVQLVQSGAEVKKPGESLKISCKGSGYSFTSYWIGWVRQMPGKGLEWMGIIYPSDSDTRYSPSFQGQVTISADKSISTAYLQWSSLKASDTAMYYCARGIIYPSNVAVWGQGTLVTVSS VL: SYELTQPPSVSVAPGQTARITCSGDALGDKYASWYQQKPGQAPVLVIYEDSKRPSGIPERFSGSNSGNTATLTISGTQAEDEADYYCSVWDGDWGMPVFGGGTKLTVLG	0.5
Ame55 mutant, heavy chain 101A (antibody, V domains shown, Mutant of Ame55) VH: EVQLVQSGAEVKKPGESLKISCKGSGYSFTSYWIGWVRQMPGKGLEWMGIIYPGDSDTRYSPSFQGQVTISADKSISTAYLQWSSLKASDTAMYYCARGIAYPSNVAVWGQGTLVTVSS VL: SYELTQPPSVSVAPGQTARITCSGDALGDKYASWYQQKPGQAPVLVIYEDSKRPSGIPERFSGSNSGNTATLTISGTQAEDEADYYCSVWDGDWGMPVFGGGTKLTVLG	4
Ame55 mutant, heavy chain 54A (antibody, V domains shown, Mutant of Ame55) VH: EVQLVQSGAEVKKPGESLKISCKGSGYSFTSYWIGWVRQMPGKGLEWMGIIYPADSDTRYSPSFQGQVTISADKSISTAYLQWSSLKASDTAMYYCARGIIYPSNVAVWGQGTLVTVSS VL: SYELTQPPSVSVAPGQTARITCSGDALGDKYASWYQQKPGQAPVLVIYEDSKRPSGIPERFSGSNSGNTATLTISGTQAEDEADYYCSVWDGDWGMPVFGGGTKLTVLG	> 10
Ame55 mutant, heavy chain 59A (antibody, V domains shown, Mutant of Ame55) VH: EVQLVQSGAEVKKPGESLKISCKGSGYSFTSYWIGWVRQMPGKGLEWMGIIYPGDSDTAYSPSFQGQVTISADKSISTAYLQWSSLKASDTAMYYCARGIIYPSNVAVWGQGTLVTVSS VL: SYELTQPPSVSVAPGQTARITCSGDALGDKYASWYQQKPGQAPVLVIYEDSKRPSGIPERFSGSNSGNTATLTISGTQAEDEADYYCSVWDGDWGMPVFGGGTKLTVLG	> 10
Ame55 mutant, heavy chain 99S (antibody, V domains shown, Mutant of Ame55) VH: EVQLVQSGAEVKKPGESLKISCKGSGYSFTSYWIGWVRQMPGKGLEWMGIIYPGDSDTRYSPSFQGQVTISADKSISTAYLQWSSLKASDTAMYYCARSIIYPSNVAVWGQGTLVTVSS VL: SYELTQPPSVSVAPGQTARITCSGDALGDKYASWYQQKPGQAPVLVIYEDSKRPSGIPERFSGSNSGNTATLTISGTQAEDEADYYCSVWDGDWGMPVFGGGTKLTVLG	> 10

From US20150274828A1 (SHANGHAI SERUM BIOTECHNOLOGY, published 2015)
